Columns and labels:
[1] = Phase 1b study GS-US-536-5816: safety (adverse events)
Source text: Participants were monitored clinically with plasma HIV-1 RNA every four weeks until the primary endpoint at Week 26. The primary endpoint was safety; secondary endpoints included virologic outcomes by FDA Snapshot analysis.

[2] = Phase 1b study GS-US-536-5816: pharmacokinetics of TAB, ZAB and LEN; details: single dose; through Week 26
[3] = Population PK modeling and simulation of GS-5423 and GS-2872, flat vs weight-based dosing every 6 months; parameters: species or system human
Protocol: TAB and ZAB serum concentrations were measured using validated […]-electrochemiluminescence immunoassays. A two-compartment population PK model was developed to describe the PK data of GS-5423 and GS-2872 following IV and SC administration in HIV− and HIV+ participants. See, Joel S. Owen, Jill Fiedler-Kelly, “Introduction to Population Pharmacokinetic/Pharmacodynamic Analysis with Nonlinear Mixed Effects Models”, Wiley; 1st edition, 2014 (ISBN: 9780470582299). PopPK models of TAB and ZAB were developed using nonlinear mixed-effect modeling. Covariate analyses were performed to identify significant covariates, including body weight, effects of demographics, baseline characteristics, combination regimen, and disease status, on the PK parameters of GS-5423 and GS-2872. The population PK models were simulated to predict the PK profiles of GS-5423 and GS-2872 following IV administration of 30 or 10 mg/kg body weight normalized dosing or equivalent flat doses every 6 months. Model simulations were performed to predict the concentrations of TAB and ZAB following flat vs weight-based dosing.

HIV = assay: PK-PD viral dynamic model and simulations of viral rebound during ATI; parameters: species or system human; details: in vivo, PK-PD model
Protocol: Population PK and PK-PD models were developed using a nonlinear mixed-effect modeling approach based on serum bNAb concentration and/or viral dynamic data from 6 efficacy studies in people with HIV, and 3 PK studies of 3BNC117/TAB (GS-5423) and/or 10-1074/ZAB (GS-2872) (Table 4).
bNAb concentrations were measured by ELISA assays, except for study NCT03526848 (Gaebler, et al. Nature. 2022; 606:368-374). For this study, concentrations measured by TZM-bl assay (Sarzotti-Kelsoe, et al. J Immunol Methods. 2014; 409:131-146) were transformed to ELISA data using a log-linear correlation model calibrated based on data from study NCT02825797 (Mendoza, et al. Nature. 2018; 561:479-484; Bar-On Y, et al. Nat Med. 2018; 24:1701-1707) where PK was measured using both methods. The PK data of the bNAbs were modeled by 2-compartment linear PK models. Covariates (demographics, disease status, combination treatment) were tested using stepwise forward addition (α=0.01) and backward elimination (α=0.001) methods. The PK-PD model describes viral replication using a logistic growth function and viral elimination using first-order kinetics, with a nonlinear saturable (Emax) model to describe the relationship between bNAb concentrations and viral elimination rates. […]

[4] = in vivo, cited from earlier work

CC(C)(C#Cc1ccc(-c2ccc(Cl)c3c(NS(C)(=O)=O)nn(CC(F)(F)F)c23)c([C@H](Cc2cc(F)cc(F)c2)NC(=O)Cn2nc(C(F)(F)F)c3c2C(F)(F)[C@@H]2C[C@H]32)n1)S(C)(=O)=O [lenacapavir]
injection site reactions related to subcutaneous administration ([1]; 17/20 patients, LEN 927 mg SC): 85% | participants with grade 3 AEs ([1]; injection site cellulitis and injection site erythema at site of LEN injection): Two participants | therapeutic concentrations [2]: maintained through Week 26

zinlirvimab: anti-HIV gp120 V3 glycan-binding bNAb; 10-1074 with M428L and N434S (LS) Fc substitutions; heavy and light chains SEQ ID NOs: 433 and 434
clearance in viremic PWH compared with those suppressed at baseline ([3]; PopPK covariate analysis): significant increase in the clearance | effect of increased body weight on PK parameters ([3]; PopPK covariate analysis in PWH): increased volume of distribution and clearance | estimated mean serum concentration corresponding to 50% maximum drug effect (EC50) (HIV): 32.2 µg/mL | non-solicited AEs within 4 weeks of IP administration ([4]; ip): 33.7% | Grade 3 AE: decrease in hemoglobin [4]: 1% | Grade 3 AE: elevated blood pressure [4]: 4% | Grade 3 AE: increased left-sided weakness [4]: 1% | Grade 3 AE: nephrolithiasis [4]: 1% | Grade 3 AE: proteinuria [4]: 1% | most common AE: localized musculoskeletal pain [4]: 8% | most common AE: symptoms of gastroenteritis [4]: 8% | most common AE: upper respiratory infections [4]: 25% | non-solicited AEs of Grade 3 severity [4]: 9.3% | non-solicited AEs of grade 2 severity [4]: 11.6% | non-solicited AEs reported (number) [4]: 86 | solicited AE: erythema/skin discoloration at the administration site [4]: 8% | solicited AE: feverishness [4]: 4% | solicited AE: headache [4]: 4% | solicited AE: induration at the administration site [4]: 2% | solicited AE: malaise/fatigue [4]: 3% | solicited AE: myalgia [4]: 1% | solicited AE: pain at the administration site [4]: 4% | solicited AEs reported (number) [4]: 20 | tolerability ([1]; up to 30 mg/kg alone or in combination, GS-US-536-5816 and previous studies in HIV+ participants): well-tolerated | therapeutic concentrations [2]: maintained through Week 26
